Experimental data taken from the NTF2 design screens of Basanta et al. (2020).

Assay: protease stability score; higher = more stable; yeast display proteolysis, trypsin and chymotrypsin;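 further: relative to predicted unfolded state with 0 unfolded-like and 1 meaning tenfold more protease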

Sequence	protease stability score
SEEYKRVKHMFDLWLHALITGDEDLMEELADPHVRHDINGVKNHGWETLIDREREWRIKRIDHRRSDAVNGRMHSDVHIDGIFDGKRHETDVTIHMIVVNGKFKTVEIRYH	1.08
SEFDEASREAHEWFVELSKTGDEHEVKKFFDPNMRIDWNGVELIGRDTASKFFHELRFEHVRMEDVKFIDGVLRLDSHSIVNVNGQRFETRDDIVIEKFNGQWILKSIRVE	1
SEFDRLSKEAVDILVHSLETGDWRSVSELFDPDYRLDVGDKRYHGREKVNEFMRHMGIKHVEIKRIHLQGDKAHIDSRMLVDGREFITHVIMEKVNGRWVITHISIE	1.01
SEFEEALKEHVKNIIRSVRTGDENELRRQLDPDAKLRINGQDYVGMEYVFHYLFEWRIHDTELKHIHVQGDKLTFNGETTGTYDGQKIHVRIRIIIWKVDGRWLSEHIDVI	1.66
SEFEEIAHIMIRLFHHAMRTGDEHKLMKNFDPNTRIDVNGVEEHGRENLERHLHHLSRHLRVNDFKVKDVKDVDGRVVIDGIWNGEINGQETDVEVEVIIIKINGQWYIQHLKIK	1.03
SEFEHRAHEVLEIMSNALHTGDEERMQKLMDPNVRIVIGDKENIGRETFMYWVKEIRFEIEIHIHRIDVINGRIHADTRLRIIIHYNGREHRDHFDVHFDIQKVDGRWVVHRIIVD	2.1
SEFEKDSEHAARVLMHELHTGDFESLHELADPNDRNSLHIGDKHWFDHGRHWVRKWFERFKNATLIVEDIRLDVQGDKVRMEVDGHLNINGKHYRVHLIFILRKINGKWHVQQVDIHVD	2.41
SEFENLQRLWLEILEHHSETGDERFMSRLADPNAKLLVNGKEFHGMEEVVEFIERLWEKFKNVRVEIHDFTVQGNKIDMDVILYYGEKVHRTEMHAVKYDGRWFMRELSIR	1.38
SEHDDLIRHYAERIRKSLLTGDEHDLTELLDPNTYFEVRIGDFTLKAHGWERVHEVLDMINENLGIKHDDIQHIEWYGDKIHIDTRVRIGDKEIHTEVIIVVINGKVSKIEHRVI	0.45
SEHDEDLENAWRVIKHSTETGDEETSRELIDPNARIDINGKDLHGREEISRIFSEWRVHHIEIKHVEHVGNKVHIDGHEDINVDGRRMETRIELIITKINGKWLVHSIRYI	0.53
SEHDEELERWARLILHLLYTGNEEELRKMMDPDVRLNVNGRELHGWKKAMELWRIIKEHLRIHHVDIHDIDVFDGRNHVDIRINTNINGQEYIYKTEIIIVIIDGRMRSHEVRVK	1.74
SEHDEELRHASEKLWHDILTGDWKSIKELADPNVRVIIWQGEKEINLHGREEVTRVIKEMGFKHTHIEHQSTINGRMIVDNHSNINGKRVHLHFVIEKINGRWFLHEMRIEFE	1.47
SEHDEHIEHLLKEIIEDIETGDWHHWRHLADPHTRMEVGDKEKHGWKVYFEILHRYRGARLEFKSVDVQGDKIHVETHVHVNGRSFDTELRFYIVNGKMQEVIIQFR	0.85
SEHDEHLQRNWERFLHHIETGDWRDHEENADPHARVHIGEFDLHGREKFSELFMRLGVKHIEIQRLIVQGDKITADTVVHYGDKRLKTNIFVTKINGRWQLHSIEMR	1.42
SEHDELLNRLSELLTHLILTGDWKTFSELADPNVLAITDINGRTRHHHGREHFLNLLEELLREFGIDHLWITHIDAFNGVSHTHVNIEVNGRTHELRLHIVIIDGKVHEVHFSFK	0.34
SEHDELVKRNLEEMIRAAETGDEEKLRQLMDPHVKLEVNGREFVGREHWERFFREVIHRFGVTRIEIILHRIHDIDGRIYVDGTEVYGDYFERSLWISLKVNGKWVITHQHIH	0.336
SEHDEMIHKIAKEIMEVLVTGNEEWLDKLVDPHMRLEFNGKDIHGREKLNELLRKFKNVKLEYHINSIEAWDGRTQVNGKVHIEYGDKSRIKDTRLHVLIWDGKIREMRVDHD	2.23
SEHDEQAEDWTRKHIHWFETGDEELLETLLDPNTRHIVDGQEYHGRENLRRMFHYLLSFMGIKYVRLTNHEVVGDKAHIHMTTNVNGQHTRLILHLIVINGRVHTIEIRVR	0.544

Sequence	protease stability score
SEHDERRRRVLELWFHALHTGDEEKLQELMDPDARLDINGVKLHGRDKLIEFFREWRFKHVDIHDMDEFNGVVNIKIEHVEIYNGQHRRVETRIFLIKINGRWHFRHIELH	1.66
SEHDESIHRHFEKIHESIRTGDEELLRKFLDPNTLLVNEDEKVVGWEQWVEQVRRHLTELGAKHVSFSLHDRRFFDGRLHLDSRVIIEIGDKRLSLETEVINLKFNGRWIITSLTSS	1.14
SEHDEYAKKVVEIIWKDMLTGDEDKFSEMADPDVRLDIGDKHHHGMEEMTEILTRVYKHIRIEDWRIRDIRHINGKAVVDGHTTIEIGDKRIHRRVELIVIVIDGRLKTLEYRVH	1.09
SEHDHHSEWMSRLMFEAWLTGDEDFIMHLADPNTRSHLHYGDKEVNLHGRESFKRMVEELHRELGANHRDLKEVRLQGDKSLLRLEVRVGDKRREQHIIIIIVNGRVKSITVEVR	0.874
SEHDKEMREWIKTLFELMYTGDWVILRELADPNAKFRQGDFTKIGREQYERHVRRHLDLLGHDNIEIHWEDVEIVGNYAVFHGHLTFNGKSTHVIIRVFVIDGRMKHEHVEIK	1.3
SEHDKFTREMSEMLIEALLTGDWRIFEELADPNMRFHQGEFHFHGREEVSHRMLELVDLLGADHYDVREIRFQGDKIHTHLEYYIGDKLFRVDLHAEKVNGKWHLTIVHVDSH	2.03
SEHDKVLRELINLLWEALATGDFDQLHKLLDPHVKLDIGEWHSHGRESFIKNWLDDIRRVKNVRYELRHMDVINGQAHLDIHESYDGVRYDSELIIFIIDGKIHEITVHIR	0.83
SEHDNLMKEKLTLMEHTLMTGDEEVWRELLDPEALTTVDGQHFHGREEVVKFLRKVRRRVDHITSIEIESIDPQGEKLHLDGRNRIKIDGREIELNVVIIMRKINGRWFLRSWNVV	1.22
SEHDRLAHEWMRVFLHSIWTGDEDTILKMIDPHMRLDIDGVTFHGRDDVREWFHHHRERVDHIKDVDIKDVRIFDGKAETDRIVHVQVDGKEVDEEVLVILIVIDGRVTSIIIEKR	1.12
SEHEDMFREMAELLLESLVTGDFRQLKRLADPHMRLKINGKDTHGREEFSRVFKELDDELGVDHIEIKHLRVQGDKIHIHGKMHFDGRWHERHVDVEIFNGVVRHHRVEIR	1.3
SEHEEASERMTRLTLHLFETGNEEVFNRLADPHTRVIINGQEHVGRETVIEFLKKERDELGADVLIIKDIDVERQGEKVEVIFHGEIKFNGRYYKVEIIIIYLKVDGKWFIESMKHIVK	2.37
SEHEEDARRIFERWINSVNTGDERLIYEMHDPHVRVEINGREFHGREEIHKLAHRIDHFKIHRIIERDVRLVNGRVELHGEIDYRFFFDGKELSSIHSLHMTLTKVNGRWSIEEERVK	0.39
SEHEEDFKKATHEILEIWETGDEHRMSEYLDPNTRLSIDGKNIHGREKVEEILRRHWERLGIDHLRIKDLRVHTIDGRMHLDILVRFHYNGVTIDVHLHFNLIKIDGKWYIRSILEIDR	0.418
SEHEEDLERFAREWIHIFKTGDFKMFNKLADPNVRVHINGKDNHGMEQWKHLKDRHEKELGVDRVDIHVDDVRFIGDKIEMDVTVRQGEFSTRWHVELIVVDGRLKHVSFHVR	1.16
SEHEEEARKASQESLHDLKTGDEDSFERLLDPNTRVIVLFDGREIIHVGREEVTRFISEWLKRYKGMRIEMQDVRVIDGRIDIHLKTDVDGKDHRLDIHSEKINGQWFLKSIFVDVH	1.95
SEHEEELHKFFEEFLKAVETGDWRRLMELIDPHARLHIHQGEKEDHDHGRKFLKEFLKRYPNLRIQVTSLRIDVIDGVAIIILRGHDDVNGVELHSTIRIVVTKVNGQWRVEEVEIRIR	1.38
SEHEEESHIAFEIYQKWVQTGDWEQLDHNFDPDTRVEINGVEHVGMEHFHELEKRLHEHLGISKINSHVKHFEIFDGRLELFTIMEFNGRRIRTHHIAHKVNGRWRIKSIRFE	1.43
SEHEEEVKHFIELIVHFLKTGDEDHLAKMADPHVRLHIGDKEFHGREDFSKWVHLLLHHWRLKTFILRRVHVQGEKAHIDGQLDFDVDGKKTLLDVHLTVRKIDGRWFIETVIDG	2.35
